We go through 2 molecules from PMC3025530 (The Biochemical journal, 2010).

The target in experiment [1] is T1, ADAM12-S (shorter secreted form of ADAM12), full-length (human, UniProt O43184-2 29-707).
T1 sequence (looked up): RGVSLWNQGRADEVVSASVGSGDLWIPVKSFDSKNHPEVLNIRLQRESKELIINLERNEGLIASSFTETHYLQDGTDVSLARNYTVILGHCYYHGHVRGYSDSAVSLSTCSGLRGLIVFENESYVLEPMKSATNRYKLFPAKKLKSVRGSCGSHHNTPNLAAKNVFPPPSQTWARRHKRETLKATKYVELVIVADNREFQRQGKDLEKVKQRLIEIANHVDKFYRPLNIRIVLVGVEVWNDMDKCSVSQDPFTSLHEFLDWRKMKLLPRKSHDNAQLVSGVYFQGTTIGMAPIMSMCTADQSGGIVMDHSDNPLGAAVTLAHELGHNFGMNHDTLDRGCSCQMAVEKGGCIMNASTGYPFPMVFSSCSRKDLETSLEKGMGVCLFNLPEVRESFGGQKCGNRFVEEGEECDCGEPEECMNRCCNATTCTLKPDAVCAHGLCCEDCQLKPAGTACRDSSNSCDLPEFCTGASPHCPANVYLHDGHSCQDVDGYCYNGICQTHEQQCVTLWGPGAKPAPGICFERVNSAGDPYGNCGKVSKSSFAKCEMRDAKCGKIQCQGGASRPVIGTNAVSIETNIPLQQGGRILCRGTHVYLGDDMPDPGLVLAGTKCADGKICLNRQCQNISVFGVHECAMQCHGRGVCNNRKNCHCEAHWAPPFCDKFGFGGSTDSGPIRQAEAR
Briefly: enzyme inhibition kinetics.

The target of experiment [2] is T2, ADAM12-Cat (truncated ADAM12 protein consisting of only the pro and catalytic domains) (human, UniProt O43184-2 29-419).
T2 sequence (looked up): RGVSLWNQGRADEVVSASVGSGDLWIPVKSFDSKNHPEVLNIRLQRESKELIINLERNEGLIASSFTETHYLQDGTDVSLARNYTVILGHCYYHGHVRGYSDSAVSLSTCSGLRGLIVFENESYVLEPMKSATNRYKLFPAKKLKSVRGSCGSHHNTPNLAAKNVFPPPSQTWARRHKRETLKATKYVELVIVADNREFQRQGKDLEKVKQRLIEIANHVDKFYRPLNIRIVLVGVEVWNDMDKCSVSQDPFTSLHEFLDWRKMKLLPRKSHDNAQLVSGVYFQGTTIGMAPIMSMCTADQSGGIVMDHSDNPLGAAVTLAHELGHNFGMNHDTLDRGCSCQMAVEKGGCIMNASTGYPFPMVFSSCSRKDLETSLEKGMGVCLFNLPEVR
Briefly: enzyme inhibition kinetics.

B1: TIMP-1 (tissue inhibitor of metalloproteinases 1), full-length (natural protein)
chain: not shown
As usually defined, the Ki is the dissociation constant of the complex between target and ligand, obtained from inhibition or displacement. In the case of B1, the inhibitory constant (Ki) in experiment [1] is 223 nM; in experiment [2] it was 741 nM.

B2: N-TIMP-3 (N-terminal domain of TIMP-3), wild-type (domain or fragment, human)
chain: CTCSPSHPQDAFCNSDIVIRAKVVGKKLVKEGPFGTLVYTIKQMKMYRGFTKMPHVQYIHTEASESLCGLKLEVNKYQYLLTGRVYDGKMYTGLCNFVERWDQLTLSQRKGLNYRYHLGCN
With B2, the inhibition constant Ki in experiment [1] was found to be 4.4 nM; in experiment [2], 0.93 nM.
